Measurements taken from article PMC2992810.
Read-outs that look alike come from different tables or passages of the source.

Columns and labels:
HA-hMC4R (human) [1] = target: HA-hMC4R (human) (UniProt P32245); assay: radioligand binding
HA-hMC4R (human) [2] = target: HA-hMC4R (human) (UniProt P32245)
HA-hMC4R (human) [3] = target: HA-hMC4R (human) (UniProt P32245); assay: radioligand binding; remark: listed apart in the source
HA-hMC4R (human) [4] = target: HA-hMC4R (human) (UniProt P32245); assay: radioligand binding; remark: listed apart in the source
[5] = target: MC2R-MRAP complex (HA-hMC2R co-expressed with mMRAP on CHO cells) (human | mouse) (UniProt Q01718); assay: radioligand binding
[6] = target: MC2R-MRAP complex (HA-hMC2R co-expressed with mMRAP on CHO cells) (human | mouse) (UniProt Q01718)
[7] = target: MC2R-MRAP complex (HA-hMC2R co-expressed with mMRAP on CHO cells) (human | mouse) (UniProt Q01718); remark: listed apart in the source
[8] = target: MC2R-MRAP2 complex (HA-hMC2R co-expressed with mMRAP2 on CHO cells) (human | mouse) (UniProt Q01718)

Sequence of UniProt P32245 (P32245 whole entry): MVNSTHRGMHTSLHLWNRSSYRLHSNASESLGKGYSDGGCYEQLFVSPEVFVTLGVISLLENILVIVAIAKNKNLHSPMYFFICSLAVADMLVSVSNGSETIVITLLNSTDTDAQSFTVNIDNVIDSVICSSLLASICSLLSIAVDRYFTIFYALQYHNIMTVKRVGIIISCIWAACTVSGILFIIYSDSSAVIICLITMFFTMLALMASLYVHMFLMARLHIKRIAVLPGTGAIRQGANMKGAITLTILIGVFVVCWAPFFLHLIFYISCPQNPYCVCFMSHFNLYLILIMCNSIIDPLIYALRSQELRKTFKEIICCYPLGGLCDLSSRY

| Substance | IC50 (HA-hMC4R (human) [1]) | EC50 of the CRE-Luc cAMP reporter response in CHO cells containing MC4R alone (HA-hMC4R (human) [2]) | EC50 of the CRE-Luc cAMP reporter response in CHO cells containing MC4R and MRAP (HA-hMC4R (human) [2]) | IC50 (HA-hMC4R (human) [3]) | IC50 (HA-hMC4R (human) [4]) | IC50 [5] | EC50 of cAMP accumulation (LANCE assay, 20 min) in CHO cells [6] | EC50 of phosphorylation of ERK1 and ERK2 in serum-deprived HEK 293 cells (5 min) [7] | EC50 of phosphorylation of ERK1 and ERK2 in serum-deprived HEK 293 cells (5 min) [8] |
| --- | --- | --- | --- | --- | --- | --- | --- | --- | --- |
| NDP-α-MSH (peptide) | 0.92 nM | 0.11 nM | 0.27 nM | 0.19 nM | 1.1 nM |  |  |  |  |
| ACTH(1–39) (peptide) |  |  |  |  |  | 5.7 nM | 2.4 nM | 1.1 nM | 68 nM |
